T1: MED23 (mouse (Mus musculus; endogenous in CH12), UniProt Q80YQ2 1-1367)
T1 construct: MED23, Mus musculus, endogenous lower Tail subunit of Mediator; Model building started from the X-ray structure of human MED23 (PDB 6H02); source: endogenous, CH12 mouse B lymphoma nuclear extract; immunopurified as part of Mediator (FLAG M2 agarose, FLAG peptide elution)
T1 sequence (looked up): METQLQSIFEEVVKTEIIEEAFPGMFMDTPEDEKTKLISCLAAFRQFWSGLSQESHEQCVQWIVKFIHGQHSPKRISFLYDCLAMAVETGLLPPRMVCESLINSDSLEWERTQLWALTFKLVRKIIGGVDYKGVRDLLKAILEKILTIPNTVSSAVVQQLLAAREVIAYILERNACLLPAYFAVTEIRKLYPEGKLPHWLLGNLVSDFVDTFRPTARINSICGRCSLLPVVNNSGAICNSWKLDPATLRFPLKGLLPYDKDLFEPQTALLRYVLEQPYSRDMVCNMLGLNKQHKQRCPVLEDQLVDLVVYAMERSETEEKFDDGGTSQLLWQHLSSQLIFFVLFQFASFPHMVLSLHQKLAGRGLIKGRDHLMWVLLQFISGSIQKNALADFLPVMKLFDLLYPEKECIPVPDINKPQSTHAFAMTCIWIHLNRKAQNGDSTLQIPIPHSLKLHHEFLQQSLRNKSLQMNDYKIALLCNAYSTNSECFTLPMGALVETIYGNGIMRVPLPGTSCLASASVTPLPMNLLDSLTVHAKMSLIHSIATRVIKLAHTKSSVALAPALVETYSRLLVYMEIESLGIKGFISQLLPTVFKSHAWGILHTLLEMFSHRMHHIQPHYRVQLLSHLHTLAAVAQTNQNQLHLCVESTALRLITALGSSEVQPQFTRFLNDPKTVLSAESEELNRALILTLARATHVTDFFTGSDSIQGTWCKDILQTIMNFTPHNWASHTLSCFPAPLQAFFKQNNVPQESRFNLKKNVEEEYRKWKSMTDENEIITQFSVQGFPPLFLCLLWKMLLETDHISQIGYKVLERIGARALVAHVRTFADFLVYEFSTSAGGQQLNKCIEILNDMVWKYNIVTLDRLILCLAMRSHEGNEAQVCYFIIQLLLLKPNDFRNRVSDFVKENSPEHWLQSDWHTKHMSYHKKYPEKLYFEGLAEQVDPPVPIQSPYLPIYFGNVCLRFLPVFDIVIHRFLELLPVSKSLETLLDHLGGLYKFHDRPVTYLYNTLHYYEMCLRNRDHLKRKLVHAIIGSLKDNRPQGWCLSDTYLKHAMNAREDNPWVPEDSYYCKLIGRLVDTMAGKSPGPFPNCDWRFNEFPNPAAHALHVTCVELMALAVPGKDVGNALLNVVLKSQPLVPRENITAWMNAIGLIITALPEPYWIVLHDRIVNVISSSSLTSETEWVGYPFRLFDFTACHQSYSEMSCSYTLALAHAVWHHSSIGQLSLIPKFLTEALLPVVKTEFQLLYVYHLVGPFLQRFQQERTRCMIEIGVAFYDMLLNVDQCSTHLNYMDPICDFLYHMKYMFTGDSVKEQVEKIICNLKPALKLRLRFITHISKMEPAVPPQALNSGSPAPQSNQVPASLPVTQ

T2: MED24 (mouse (Mus musculus; endogenous in CH12), UniProt Q99K74 1-987)
T2 construct: MED24, Mus musculus, endogenous lower Tail subunit of Mediator; source: endogenous, CH12 mouse B lymphoma nuclear extract; immunopurified as part of Mediator (FLAG M2 agarose, FLAG peptide elution)
T2 sequence (looked up): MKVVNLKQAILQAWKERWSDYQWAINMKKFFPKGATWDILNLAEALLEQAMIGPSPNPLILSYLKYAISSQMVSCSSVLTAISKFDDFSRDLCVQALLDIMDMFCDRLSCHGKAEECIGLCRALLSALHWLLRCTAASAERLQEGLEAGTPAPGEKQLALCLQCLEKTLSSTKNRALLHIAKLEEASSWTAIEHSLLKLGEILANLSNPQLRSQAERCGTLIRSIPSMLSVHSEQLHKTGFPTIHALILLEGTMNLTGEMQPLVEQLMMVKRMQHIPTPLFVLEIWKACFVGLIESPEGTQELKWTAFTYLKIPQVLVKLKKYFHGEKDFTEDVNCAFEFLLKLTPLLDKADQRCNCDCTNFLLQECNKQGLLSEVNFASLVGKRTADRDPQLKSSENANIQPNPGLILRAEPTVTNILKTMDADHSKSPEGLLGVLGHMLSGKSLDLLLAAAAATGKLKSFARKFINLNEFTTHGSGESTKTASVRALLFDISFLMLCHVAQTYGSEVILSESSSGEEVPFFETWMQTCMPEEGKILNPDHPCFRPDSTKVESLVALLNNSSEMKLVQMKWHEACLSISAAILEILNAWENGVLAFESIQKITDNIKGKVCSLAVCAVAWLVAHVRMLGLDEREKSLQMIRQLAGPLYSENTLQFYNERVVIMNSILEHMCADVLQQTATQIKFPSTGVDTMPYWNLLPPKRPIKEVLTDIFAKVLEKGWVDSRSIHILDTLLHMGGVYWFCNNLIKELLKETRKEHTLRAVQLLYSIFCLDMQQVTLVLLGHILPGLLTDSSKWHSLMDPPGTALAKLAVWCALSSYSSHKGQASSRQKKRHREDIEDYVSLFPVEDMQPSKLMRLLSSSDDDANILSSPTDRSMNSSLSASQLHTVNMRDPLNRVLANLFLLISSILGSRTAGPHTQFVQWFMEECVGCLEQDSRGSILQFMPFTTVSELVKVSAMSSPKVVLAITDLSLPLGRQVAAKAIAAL


Key:
[1] = target: T1, MED23; test: cryo-EM structure; endogenous mouse Mediator immunopurified from CH12 nuclear extract through 3×FLAG-MED19 or 3×FLAG-MED25; eluted in 50 mM HEPES pH 7.9, 100 mM KCl, 5% glycerol, 1 mM EDTA, 0.005% NP-40; map at 4.0 Å overall, focused refinement of the MED1 and knob/hook ends (6-10 Å); details: both partners purified
[2] = target: T2, MED24; test: as above; details: both partners purified

binding result [1]	binding result [2]	Binder
binds	binds	MED15 (natural protein, mouse (Mus musculus; endogenous in CH12), UniProt Q924H2 1-789, looked up, MED15, Mus musculus, endogenous lower Tail subunit of Mediator; only the C-terminal portion (from residue 620) is seen in the map; source: endogenous, CH12 mouse B lymphoma nuclear extract; immunopurified as part of Mediator (FLAG M2 agarose, FLAG peptide elution)) MDVSGQETDWRSAAFRQKLVSQIEDAMRKAGVAHSKSSKDMESHVFLKAKTRDEYLSLVARLIIHFRDIHNKKSQASVSDPMNALQSLTGGPTPGAAGIGMPPRGPGQSLGGMGGLGAMGQPLPLSGQPPPGTSGMAPHGMAVVSTATPQTQLQLQQVALQQQQQQQQQQQFQQQQAALQQQQQQQQQQQQQQQFQAQQNAMQQQFQAVVQQQQLQQQQQQQHLIKLHHQSQQQQIQQQQLQRMAQLQLQQQQQQQQQQALQAQPPMQQPSMQQPQPPPSQALPQQLSQLHHPQHHQPPPQAQQSPIAQNQPPQIPPQSQSQPLVSQAQALPGPMLYAAQQQLKFVRAPMVVQQPQVQPQVQQVQPQVQPQAAVQAAQSAQMVAPGVQMIAEALAQGGMHVRARFPPTSTMSAGPSSSISLGGQPTTQVSQSSLTMLSSPSPGQQVQTPQSMPPPPQPSPQPGSQPNSNVSSGPAPSPSSFLPSPSPQPSQSPVTARTPQNFSVPSPGPLNTPVNPSSVMSPAGSSQAEEQQYLDKLKQLSKYIEPLRRMINKIDKNEDRKKDLSKMKSLLDILTDPSKRCPLKTLQKCEIALEKLKNDMAVPTPPPPPVLPTKQQDLCQPLLDAVLANIRSPVFNHSLYRTFVPAMMAIHGPPIVSPVVCSRKRRFEEDERQSIPNVLQGEVARLDPKFLVNLDPSHCSNNGTVHLICKLDDKDLPSVPPLELSVPADYPAQSPMWIDRQWQYDANPFLQSVHRCMTSRLLQLPDKHSVTALLNTWAQSIHQACLSAA
binds	binds	MED25 (natural protein, mouse (Mus musculus; endogenous in CH12), UniProt Q8VCB2 1-745, looked up, MED25, Mus musculus, endogenous lower Tail subunit of Mediator; only the N-terminal von Willebrand domain (aa 15-216) is seen in the map; The 3×FLAG tag stands on MED25 only in the MED25-FLAG cell line; in the MED19-FLAG line MED25 is untagged; Images from the datasets were combined for the final map; also called MED25-FLAG; source: endogenous, CH12 mouse B lymphoma nuclear extract; …) MVPGSEGPARAGGLVADVVFVIEGTANLGPYFEELRKHYLLPAIEYFNGGPPAETDFGGDYGGTQYSLVVFNTVDCAPESYVQCHAPTSSAYEFVTWLDGIKFMGGGGESCSLIAEGLSTALQLFDDFKKMREQIGQTHRVCLLICNSPPYLLPAVESTTYSGCTTESLVQKIGERGIHFSIVSPRKLPALRLLFEKAAPPALLEPLQQPADVSQDPRHMVLVRGLVLPVGGSSTSGSLQTKQAVPLPPAPASAATLSAAPPQALPPVPPQYQVPGNLSAAQVAAQNAVEAAKSQKAGLGPRFSPINPLQQAAPGVGPPFSQAPAPPLAPVPPGAPKPPPASQPSLVSTVAPGPVLAAPAQPGAPSLAGTVTPGGVNGPSAAQLGGPALGGQQSVSNKLLAWSGVLEWQEKPKPASVDANTKLTRSLPCQVYVNHGENLKTEQWPQKLIMQLIPQQLLTTLGPLFRNSRMVQFHFTNKDLESLKGLYRIMGNGFAGCVHFPHTAPCEVRVLMLLYSSKKKIFMGLIPYDQSGFVNGIRQVITNHKQVQQQKLEQQRGMGAQQAPPVLGPILEEQARPPQNLLQLRAPQPQPQGAVGASAATGQPQPQGATQAPTGAPQGPPGAAPGPPPSGPILRPQNPGANPQLRSLLLNPAPPQTGVPPPQASLHHLQPPGAPTLLPPHQSMGQPQLGPQLLHPPPAQSWPTQLPQRAPLPGQMLLSGGPRGPVPQPGLQPSVMEDDILMDLI

From PMC7921410, “Structure of mammalian Mediator complex reveals Tail module architecture and interaction with a conserved core” (Nature Communications, 2021)
